In patent US20190263931A1 (IMMUNOMETABOLISM DEVELOPMENT, published 2019):

Columns and labels:
[1] = molecular target: T1, human MCT1 (monocarboxylate transporter 1, SLC16A1) (human, UniProt P53985 1-500); assay: flow cytometry, MFI on 293T WT (MCT1+ 293) cells, full Mabs
T1 construct: Multipass membrane transporter; also called human MCT1 protein
T1 sequence: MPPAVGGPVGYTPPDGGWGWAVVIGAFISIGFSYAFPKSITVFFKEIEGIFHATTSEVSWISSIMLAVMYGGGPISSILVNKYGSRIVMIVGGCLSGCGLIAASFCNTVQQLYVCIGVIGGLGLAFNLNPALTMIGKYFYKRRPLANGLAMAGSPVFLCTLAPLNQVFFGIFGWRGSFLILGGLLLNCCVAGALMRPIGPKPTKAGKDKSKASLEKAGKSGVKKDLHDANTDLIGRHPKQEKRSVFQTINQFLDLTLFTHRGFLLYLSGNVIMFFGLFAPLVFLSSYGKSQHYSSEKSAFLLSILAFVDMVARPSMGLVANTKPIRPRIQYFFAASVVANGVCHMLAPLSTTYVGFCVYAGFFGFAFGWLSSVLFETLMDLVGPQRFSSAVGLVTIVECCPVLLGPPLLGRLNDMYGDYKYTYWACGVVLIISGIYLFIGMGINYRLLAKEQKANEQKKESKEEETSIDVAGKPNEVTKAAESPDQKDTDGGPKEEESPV

[2] = molecular target: T1, human MCT1 (monocarboxylate transporter …); assay: Kinetic Exclusion Assay (KinExA)
rat MCT1 = molecular target: T2, rat MCT1 (rat, UniProt P53987 1-494); assay: flow cytometry, rat PBMC (live gate), resting and stimulated
T2 construct: whole, on cells; also called rodent MCT1
T2 sequence (looked up): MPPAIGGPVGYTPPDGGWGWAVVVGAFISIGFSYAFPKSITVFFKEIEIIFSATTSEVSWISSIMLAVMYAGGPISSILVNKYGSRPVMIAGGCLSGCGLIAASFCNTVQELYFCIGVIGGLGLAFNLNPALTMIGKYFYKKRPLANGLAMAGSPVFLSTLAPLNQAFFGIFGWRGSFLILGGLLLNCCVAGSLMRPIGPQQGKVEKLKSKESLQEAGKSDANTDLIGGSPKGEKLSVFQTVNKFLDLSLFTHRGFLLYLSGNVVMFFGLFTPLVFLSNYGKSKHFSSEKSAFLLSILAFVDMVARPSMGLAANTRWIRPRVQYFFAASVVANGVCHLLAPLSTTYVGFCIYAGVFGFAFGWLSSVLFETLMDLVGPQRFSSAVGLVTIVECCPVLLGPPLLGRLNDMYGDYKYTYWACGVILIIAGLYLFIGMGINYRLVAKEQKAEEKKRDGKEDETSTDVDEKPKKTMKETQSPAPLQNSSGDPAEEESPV

Binder | binding result [1] | Kd [2] | binding result (rat MCT1)
LM-187 (antibody, V domains shown) VH: AVTLDESGGGLQTPGGLVSLVCKASGFGFTNYEIHWVRQAPGKGLEWVGFVSSGGAYADYAPAVKGRATITRDNGQSTVRLQLVNLRAEDTGTYYCTRAPCGSWCGWGYTGVDNIDAWGHGTEVIVSS VL: ALTQPSSVSANPGGIVKITCSGGGRGSHYGWYQQKSPGSAPVTLIYANNQRPSDIPSRFSGSESGSTATLTITGVQAEDEAVYFCGGYDSGATFGAGTTLTVL | no binding |  | 
MCT1 Ab1 (antibody, V domains shown, also called INX310; Rat Anti-MCT1 antibody) VH: QVQLKATGPGLVQPTQTLSITCTVSGFSLTNYHLQWVRQTPGKGLEWMGFIRSSGNTEYNSEFKSRLSISRDTSKNQVFLKMNSLKTDDTGVYYCARNSWYHGTYYSPGYYVMDAWGQGASVTVSS VL: NIHLTQSPSLLSASVGDRVTLSCKGSQNINNYLAWFQQKFGETPKLLIYNRHNLQTGIPSRFSGSGSGTDYTLTINSLQPEDVATYFCYQYSDGYTFGAGTKLELK |  | 6.3 nM | no binding
